Measurements published in publication PMC3223204, “Implantation Serine Proteinase 1 Exhibits Mixed Substrate Specificity that Silences Signaling via Proteinase-Activated Receptors” (PLoS ONE, 2011).
No end group written: not given here.

Biological target: T1, purified recombinant ISP1 (Mus musculus, UniProt Q924N9)
T1 construct: Myc (C); His6 (C); made in house; host or cells: Pichia pastoris SMD1168
T1 sequence (Q924N9 31-274 limits assumed): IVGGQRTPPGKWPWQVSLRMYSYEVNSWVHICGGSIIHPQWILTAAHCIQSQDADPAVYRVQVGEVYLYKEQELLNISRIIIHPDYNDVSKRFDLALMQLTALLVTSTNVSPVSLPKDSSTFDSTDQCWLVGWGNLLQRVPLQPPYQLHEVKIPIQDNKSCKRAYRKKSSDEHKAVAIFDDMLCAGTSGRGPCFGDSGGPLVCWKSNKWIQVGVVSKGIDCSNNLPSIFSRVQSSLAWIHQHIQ
Assay: In vitro cleavage of synthetic peptides by ISP1 (HPLC, MALDI-TOF)
Type: biochemical
Details: for Cleavage of synthetic peptide by ISP1: 37°C, up to overnight, HPLC; for ISP1 cleavage site in synthetic peptide: MALDI-TOF / amino acid analysis / ES-MS
Description: Synthetic peptides (1 mg/ml) diluted in 25 mM Tris.Cl (pH 7.8) were incubated with 2.0 units of purified recombinant ISP1 (total volume of reaction mixture: 0.5 ml) at 37°C overnight. The reaction was terminated by the addition of 0.1% trifluoroacetic acid and the mixture was separated using HPLC with an acetonitrile gradient in 0.1% v/v trifluoroacetic acid. The positions of the hydrolysis products monitored by ultraviolet absorption (E215) were compared to the elution position of the intact peptide. The masses of the individual peaks (E215) were determined by MALDI-TOF mass spectroscopy and were used to deduce the predicted amino acid sequences, based on the parent peptide sequence (amino acids are abbreviated by their one-letter codes, e.g., A = alanine, R = arginine). Except where indicated, all chemical reagents were from VWR International (Mississauga, ON, Canada).
The rat PAR2 sequence representing the cleavage/activation domain (^30 GPNSKGR/ SLIGRLDT ^45P: tethered ligand sequence, underlined), the 27-mer synthetic sequence derived from the N-terminal residues […] of rat PAR2 (I^48 […] ^74) and a 17-mer synthetic peptide sequence derived from extracellular loop 2 of rat PAR2 (V^229 LPEEVLVGDMFSYFLS ^245) were selected for the proteolysis studies. […] The 17-mer ^229–245PAR2 sequence is the potential binding site of the activating peptide. […] These peptides at a concentration of 100 µM were incubated with implantation serine proteinase 1 for varying times up to overnight at 37°C. The incubation buffers were identical to the buffers used for the measurements of enzymatic activities using AMC-substituted peptide substrates. Reactions were terminated either by rapid freezing in liquid nitrogen or by the addition to the proteolysis sample of 2 volumes of a “stop solution” comprising 50% acetonitrile and 0.1% trifluoroacetic acid in water. Samples were either subjected immediately to HPLC analysis, with collection of the E215 peak fractions, or were stored at −80°C for further processing. The cleavage products in peaks of absorption resolved by HPLC were quantified (E215), collected and their identity was established by mass spectral MALDI analysis. Some of the peaks recovered from the HPLC columns, but not ascertained by mass spectral analysis (MALDI-TOF), were identified by total amino acid analysis. Analyses were done at the Southern Alberta Mass Spectrometry Facility at the University of Calgary, Faculty of Medicine (Calgary, Alberta, Canada).

| Substance | Cleavage of synthetic peptide by ISP1 | ISP1 cleavage site in synthetic peptide |
| --- | --- | --- |
| ITGKGAPVEPGFSVDEFSASVLTGKLT-NH2 [27 mer peptide] | successfully cleaved | between an alanine (P1 sub site) residue and a serine (P1′ sub site) residue |
| RRFYIQ-NH2 | cleaved by ISP1 | – |
| VLPEEVLVGDMFSYFLS [17-mer synthetic peptide, derived from the extracellular loop 2 domain of rat PAR2] | successfully cleaved | between a tyrosine (P1 sub site) residue and a phenylalanine (P1′ sub site) residue; a phenylalanine (P1 sub site) and a leucine (P1′ sub site) residue; a leucine (P1 sub site) and a serine (P1′ sub site) residue |
| cleavage/activation sequence of PAR2: sequence representing the cleavage/activation site of rat PAR2 (30 GPNSKGR/ SLIGRLDT 45P) (GPNSKGRSLIGRLDTP; UniProt Q63645 30-45, looked up, fragment) | not cleaved | – |
